# B1: TPR t1 (parent)
# chain: GACCAAUCUGCCCUCAGAGCUCGAGAACAUCUUCGGAUGCAGAGGAGGCAGGCUUCGGUGGCGCGAUAGCGCCAACGUCCUCAACCUCCAAUGCAUCCCACCACAUGAUGAUGCCUGAAGAGCCUUGGUUUUUUG
# Variants of: B1
# Assay: polymerase ribozyme fitness, log enrichment relative to wild type (log ratio); higher = more active; in vitro selection for triplet polymerase activity
# Summary of the method: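 Fitness is a logarithmic measure of how a genotype enriched relative to the wild type, with replicate averages weighted by inverse variance. The logarithm uses base 2, and enrichment came from Illumina sequencing of input and output libraries. Those libraries were PCR-built, transcribed mutants of each subunit of a heterodimeric triplet polymerase ribozyme, passed through one triplicate in vitro selection round that included frozen incubation at −7 °C, gel excision of extended constructs and streptavidin-bead capture. Genotypes were kept only if they had ≥10 input reads and ≥1 read per output.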
row,Variant,polymerase ribozyme fitness (log ratio)
1,C28G C56A G110U C124U,-0.0721
2,A29C G36U C73U,-3.91
3,C28G A95U G110C A111C U133A,-1.6
4,C28U G71U A83U C86G C123G,-2.39
5,A29G C40U G63A C104U G122A,-2.07
6,A29G G77U,-1.38
7,C28A U32C,-3.9
8,A29G G51U C62U C82G,-4.8
9,A29C C53G U133G,-4.74
10,A29C C49U,-2.86
11,C28G C40G G48U C53U,-3.75
12,C28U G93U U112C,-1.92
13,C28G A29G G42U G44A A83U C124U,-7.08
14,A29C C64A U109G G113A,-6.15
15,C28U G39A G61U,-2.23
16,C28U C53G G58C G60C,-3.2
17,A29G A91C,-1.57
18,A29G C40G A74U U81A U92G C115A,-3.87
19,C28A A68G A74U G93A C114G,-7.51
20,C28G G60U C80U C115U G120C C123A U131A,-6.73
21,A29G G61A C99A U112C C124A G135C,-5.36
22,A29G C97U C101A A103U G120A U133G,-7
23,C28A G60A C97U U112A,-2.26
24,C28U G69A,-4.67

row,Variant,polymerase ribozyme fitness (log ratio)
1,C28G U54C A68G G110U,-3.67
2,A29G G52A G71U C73U,-4.52
3,A29G C115U,-1.56
4,C28U G71C,-2.78
5,C28U G71A,-2.58
6,C28U C56G G57C,-2.34
7,A29C G45A C115U,-4.57
8,A29G A90C,-2.34
9,C28G C53U C56U,-2.28
10,A29G C53G C62U U106A G117C,-4.22
11,C28U A37U,-2.36
12,C28U G113U,-4.02
13,A29G C104U U106G,-1.09
14,A29G A118U G120C,-1.87
15,C28G G47A C56U U116G,-5.77
16,A29G C53A A90C C101U G113C,-2.81
17,A29G G117A,-2.22
18,A29G G117C,-3.99
19,C28G C53U C56G G77A C88U,-1.92
20,A29G C94A,-2.09
21,A29G G45A A121C G128C,-2.4
22,C28G G60A,-3.53
23,C28U U92C,-3.43
24,A29C A75G C124G U129C,-1.16

row,Variant,polymerase ribozyme fitness (log ratio)
1,A29G G120A,-1.03
2,C28A C72U A100C G120A,-4.36
3,C28G C49U U92A G110A,-5.35
4,A29G G51A,-3.06
5,C28G A29U C114G G127C,-5.87
6,C28G G47C,-3.69
7,C28U A43U G48U G52C C86A C101A G117C C124U,-7.22
8,C28G G48C A83G A84U G120C,-2.29
9,C28A G39U U54C,-4.55
10,A29G G69A C86A U112A C123G,-3.48
11,A29C G48A A50C,-3.87
12,C28G U81A U87C,-2.99
13,A29C C124A,-0.296
14,A29C C124G,-0.564
15,C28U G42U C49G G69U U126G U130A,-6.32
16,C28G G39C C49U G69A,-6.04
17,A29C G63C U78A U92A G120C,-5.6
18,C28G G93U,-3.89
19,A29C G77U U81C,-4.43
20,A29C U55C C72U C115A U133A,-2.23
21,C28U A46U A74U,-3.5
22,C28G A37U G42U C56A U106A G113A C114G,-5.89
23,C28G G44U A111C G117C,-6.59
24,C28A G44A G48A C73U U106A,-5.87

row,Variant,polymerase ribozyme fitness (log ratio)
1,A29C A66G G120A,-2.9
2,A29G C72A G113A G128A,-2.62
3,A29G A43C G122A,-4.45
4,A29G A50U C70G G113A,-5.1
5,C28U G36A G48A,-3.89
6,A29G C72U,-1.98
7,A29G C72G,-1.98
8,A29G A37G G63A C88U A111C,-3.49
9,C28G C94A,-4.49
10,A29C A50U,-2.67
11,C28U G58C G113C U132C,-4.51
12,C28U G117U,-3.99
13,C28U G117C,-6
14,C28A C70A,-4.81
15,C28U C70G,-4.94
16,A29C G63U,-3.09
17,C28U C123A,-1.91
18,C28U G39A U54C C79A,-4.8
19,C28G C124G,-0.979
20,A29G C56G C62A,-4.43
21,A29G A103C U106A,-5.73
22,A29G G39U C85U C89U,-4.23
23,A29G G60A U109A U112A G122A U130G,-6.7
24,C28U C101A C123G G128U,-3.71

row,Variant,polymerase ribozyme fitness (log ratio)
1,A29G C62U,-1.68
2,A29G C34A,-4.34
3,A29C U130C,-2.27
4,A29C U55C C115A U133A,-2.81
5,C28G G63A A84C A121U,-3.21
6,C28U G63A,-3.62
7,C28U G63U,-3.07
8,C28U C89U,-2.51
9,A29G A46C A50G U54C G120U C123A U129C,-4.1
10,C28U C49G,-3.16
11,C28A A50C C73A G113A,-4.23
12,A29C G93A,-3.03
13,A29G G39U C94G,-2.78
14,C28U A29U G45C G61A,-3.76
15,C28U C73G,-2.44
16,C28U C73U,-1.11
17,C28G G63U C70G C88A U106A U125G G128C,-4.76
18,A29G A84C C94U U106A G120A U125G,-0.885
19,C28G C56G G61A G77A,-2.42
20,A29G G61A C124A,0.686
21,C28U C101U G120U,-3.5
22,A29G G60C A74U,-3.15
23,C28A G63C,-4.91
24,C28U G47U C56U,-3.24

row,Variant,polymerase ribozyme fitness (log ratio)
1,C28U G52C U106A U112A,-1.6
2,A29G G60C U106A U109C G117A G127A,-5.43
3,C28U C40A,-2.12
4,C28A G127C,-5.95
5,C28U C40A G71U U112C U126A,-3.58
6,A29G G63C,-1.45
7,C28U G48U,-2.79
8,C28U G48A,-3.13
9,C28U A90U A111U,-5.21
10,A29C G61C U87A,-4.41
11,A29G C104A G117C U131C,-6
12,C28G C70A A90G G117U,-5.76
13,A29G C31A C56G C99A A121G U129C,-7.31
14,A29C G47U G60C C97U,-6
15,C28U C86U,-2.31
16,C28G C56G C86U C124U,-1.07
17,C28G C49G G52A G120A,-4.24
18,C28A C80U A111G,-5.64
19,C28U C88U,-1.61
20,A29G A37U C89U C94U C123A U126A,-3.13
21,C28U G63A C88U,-3.69
22,C28U G47U G93A,-5.35
23,C28G C53A,-1.99
24,A29C G52U G63C,-2.49

row,Variant,polymerase ribozyme fitness (log ratio)
1,C28A A75G C86G C123U,-5.57
2,C28A C124U,-2.12
3,C28G C101U,-3.08
4,A29G A121U,0.902
5,C28G G69U,-0.552
6,A29G A37C C102A,-4.8
7,C28A C99U U106A,-5.34
8,A29G A50U C73G,-1.85
9,C28A C73A C94A A119U,-5.2
10,A29G A41G C56A G61A C124A,-1.77
11,C28G C53G U59A C73A C89A U109G A111U G120A,-6.66
12,A29C G63A G120U,-3.1
13,A29C G45C G52A C85U,-5.05
14,C28G G52A C70U C80A G113C,-7.14
15,C28G G45U,-4.17
16,A29C A50U C123U U129G,-4.5
17,C28G G58C C94A,-3.94
18,C28U A43C,-4.69
19,C28G U92C C123A,-3.8
20,A29C A37G G47U C101U G110U,-5.5
21,A29C U55G G60U A75U,-2.08
22,C28G C72A C98A G122U,-5.55
23,C28G A37C,-3.7
